Data published in patent US20250276018A1 (AFFYIMMUNE THERAPEUTICS, published 2025).

How the values were obtained:
[1] = target: T1, c-MET on human target cells (human, UniProt P08581 25-1390); experiment: cell-based or functional assay
[2] = target: T1, c-MET on human target cells; experiment: cell-based or functional assay; remark: listed apart in the source
[3] = target: T1, c-MET on human target cells; experiment: cell-based or functional assay; remark: listed apart in the source
[4] = target: T1, c-MET on human target cells; experiment: cell-based or functional assay; remark: listed apart in the source
[5] = target: T1, c-MET on human target cells; experiment: cell-based or functional assay; remark: listed apart in the source
[6] = target: T1, c-MET on human target cells; experiment: cell-based or functional assay; remark: listed apart in the source
[7] = target: T1, c-MET on human target cells; experiment: cell-based or functional assay; remark: listed apart in the source
[8] = target: T2, AF647 labeled c-met protein (UniProt P08581 25-932, limits assumed, labeled with AlexaFluor 647 (AF647)); experiment: flow cytometry, EC50 relative to parental Affy7 CAR-T cells (Round 2)
T2 construct: Soluble labeled c-met protein titrated on CAR-T cells
T2 sequence (P08581 25-932 limits assumed): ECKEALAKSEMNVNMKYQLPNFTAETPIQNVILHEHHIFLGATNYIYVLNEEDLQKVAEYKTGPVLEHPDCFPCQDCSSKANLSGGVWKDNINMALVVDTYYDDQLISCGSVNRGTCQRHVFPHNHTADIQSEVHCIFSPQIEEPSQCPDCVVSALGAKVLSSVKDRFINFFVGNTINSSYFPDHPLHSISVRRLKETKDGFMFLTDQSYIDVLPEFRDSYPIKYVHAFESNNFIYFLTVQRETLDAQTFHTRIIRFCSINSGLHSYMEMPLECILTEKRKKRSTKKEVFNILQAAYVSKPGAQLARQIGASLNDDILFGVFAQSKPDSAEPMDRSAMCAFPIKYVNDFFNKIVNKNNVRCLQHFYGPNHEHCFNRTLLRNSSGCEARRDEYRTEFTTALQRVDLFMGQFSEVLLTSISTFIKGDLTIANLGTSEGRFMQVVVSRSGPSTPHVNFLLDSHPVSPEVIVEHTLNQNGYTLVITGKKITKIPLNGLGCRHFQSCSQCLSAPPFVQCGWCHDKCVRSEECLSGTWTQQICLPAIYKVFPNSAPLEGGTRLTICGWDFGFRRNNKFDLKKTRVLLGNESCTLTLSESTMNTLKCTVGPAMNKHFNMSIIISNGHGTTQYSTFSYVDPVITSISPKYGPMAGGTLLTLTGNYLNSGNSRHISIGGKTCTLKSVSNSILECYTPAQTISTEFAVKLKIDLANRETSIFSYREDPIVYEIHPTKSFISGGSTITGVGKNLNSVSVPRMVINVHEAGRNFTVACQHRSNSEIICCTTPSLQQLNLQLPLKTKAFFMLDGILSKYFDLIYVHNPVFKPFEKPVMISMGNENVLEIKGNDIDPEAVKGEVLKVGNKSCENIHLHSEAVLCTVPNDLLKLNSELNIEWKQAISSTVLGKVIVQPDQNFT
Procedure: (§1) Binding of labeled c-MET to CAR-T cells expressing the affinity tuned c-MET scFvs was evaluated by transducing lentivirus anti-c-MET CAR particles into human T cells to form c-MET CAR-T cells incubated with AF647-labeled c-MET. […] Following a 48 hr. incubation at 37° C., the culture media was brought up to […] per well and incubated at 37° C. for 10 days.
(§2) Cells were stained on ice for 30 mins and then washed with PBS. After washing, residually bound protein on CAR T cells were measured on a flow cytometer (Beckman, CytoFLEX®). The resulting binding data was fit using a non-linear regression analysis on GraphPad Prism to calculate half effective dose concentration (EC₅₀) values. The results of this analysis are shown in FIGS. 2-5 and Tables 2-5 below.

[9] = target: T2, AF647 labeled c-met protein; experiment: flow cytometry, AF647-labeled c-met protein titrated on CAR-T cells (Round 2)
Procedure: as §1, §2

T1 sequence (P08581 25-1390): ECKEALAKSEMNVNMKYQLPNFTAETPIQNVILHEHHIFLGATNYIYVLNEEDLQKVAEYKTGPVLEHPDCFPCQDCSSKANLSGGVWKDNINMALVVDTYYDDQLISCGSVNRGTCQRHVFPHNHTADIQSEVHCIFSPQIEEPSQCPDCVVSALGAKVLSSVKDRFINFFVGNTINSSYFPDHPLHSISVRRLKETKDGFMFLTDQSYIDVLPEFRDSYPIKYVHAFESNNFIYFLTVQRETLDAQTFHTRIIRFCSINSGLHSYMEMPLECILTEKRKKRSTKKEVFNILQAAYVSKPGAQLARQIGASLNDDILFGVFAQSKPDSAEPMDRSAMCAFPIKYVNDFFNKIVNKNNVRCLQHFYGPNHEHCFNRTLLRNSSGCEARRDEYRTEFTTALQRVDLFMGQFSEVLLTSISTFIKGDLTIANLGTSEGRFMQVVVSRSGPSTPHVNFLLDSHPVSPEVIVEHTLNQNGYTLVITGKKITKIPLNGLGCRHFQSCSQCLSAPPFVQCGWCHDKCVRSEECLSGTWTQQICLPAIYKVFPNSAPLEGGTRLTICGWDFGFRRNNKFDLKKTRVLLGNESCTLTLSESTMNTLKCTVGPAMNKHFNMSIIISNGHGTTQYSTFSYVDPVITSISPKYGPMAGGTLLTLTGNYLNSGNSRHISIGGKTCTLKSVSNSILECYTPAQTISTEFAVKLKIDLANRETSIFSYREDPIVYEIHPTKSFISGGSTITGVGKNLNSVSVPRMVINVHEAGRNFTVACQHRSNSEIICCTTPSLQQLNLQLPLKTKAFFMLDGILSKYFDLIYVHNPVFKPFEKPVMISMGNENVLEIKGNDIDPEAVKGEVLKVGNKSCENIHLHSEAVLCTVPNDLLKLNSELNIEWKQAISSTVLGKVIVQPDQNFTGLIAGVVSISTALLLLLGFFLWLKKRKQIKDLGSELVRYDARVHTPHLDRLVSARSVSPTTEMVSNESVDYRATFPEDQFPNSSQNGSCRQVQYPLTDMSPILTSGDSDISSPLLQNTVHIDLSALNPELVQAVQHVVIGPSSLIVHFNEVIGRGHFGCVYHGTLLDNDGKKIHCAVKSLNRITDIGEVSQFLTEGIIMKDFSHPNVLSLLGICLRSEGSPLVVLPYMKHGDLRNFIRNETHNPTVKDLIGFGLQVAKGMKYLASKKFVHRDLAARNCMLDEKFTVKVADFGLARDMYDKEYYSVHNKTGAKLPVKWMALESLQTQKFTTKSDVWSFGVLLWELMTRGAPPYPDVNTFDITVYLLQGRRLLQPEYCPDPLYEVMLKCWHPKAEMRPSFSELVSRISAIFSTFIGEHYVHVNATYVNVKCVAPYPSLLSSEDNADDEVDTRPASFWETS

B1: Affy7-Y6L CAR (other)
chain: GSEQKLISEEDLGSQVQLQQSGPELVRPGASVKMSCRASGYTFTSYWLHWVKQRPGQGLEWIGMIDPSNSDTRFNPNFKDKATLNVDRSSNTAYMLLSSLTSADSAVYYCATLGSYVSPLDYWGQGTSVTVSSGGGGSGGGGSGGGGSDIMMSQSPSSLTVSVGEKVTVSCKSSQSLLYTSSQKNYLAWYQQKPGQSPKLLIYWASTRESGVPDRFTGSGSGTDFTLTITSVKADDLAVYYCQQYYAYPWTFGGGTKLEIKRASTTTPAPRPPTPAPTIASQPLSLRPEACRPAAGGAVHTRGLDFACDFWVLVVVGGVLACYSLLVTVAFIIFWVRSKRSRLLHSDYMNMTPRRPGPTRKHYQPYAPPRDFAAYRSLRVKFSRSADAPAYQQGQNQLYNELNLGRREEYDVLDKRRGRDPEMGGKPRRKNPQEGLYNELQKDKMAEAYSEIGMKGERRRGKGHDGLYQGLSTATKDTYDALHMQALPPR
notes: CAR on transduced human T cells; Y to L in HC CDR3; P2A remnant not included; also called MycT-Affy7-Y6L CAR-SSTR2
percent cytotoxicity, SNU638, 24 hrs [1]: 66.9%
percent cytotoxicity, SNU638, 48 hrs [1]: 84.5%
percent cytotoxicity, SNU638, 72 hrs [1]: 93.5%
percent cytotoxicity, Hs746T, 24 hrs [2]: 1.6%
percent cytotoxicity, Hs746T, 48 hrs [2]: 42.9%
percent cytotoxicity, Hs746T, 72 hrs [2]: 64.5%
percent cytotoxicity, H1993, 24 hrs [3]: 12.8%
percent cytotoxicity, H1993, 48 hrs [3]: 42.6%
percent cytotoxicity, H1993, 72 hrs [3]: 71.2%
cytotoxicity, Normal Human Lung Cells, 8 hrs [4]: 21.1
cytotoxicity, Normal Human Lung Cells, 16 hrs [4]: 23.6
cytotoxicity, Normal Human Lung Cells, 24 hrs [4]: 22.8
cytotoxicity, Normal Human Lung Cells, 32 hrs [4]: 25.4
cytotoxicity, Normal Human Lung Cells, 40 hrs [4]: 25.9
cytotoxicity, Normal Human Lung Cells, 48 hrs [4]: 30.1
cytotoxicity, Normal Human Liver Cells, 8 hrs [5]: 6.1
cytotoxicity, Normal Human Liver Cells, 16 hrs [5]: 2.3
cytotoxicity, Normal Human Liver Cells, 24 hrs [5]: 2.5
cytotoxicity, Normal Human Liver Cells, 32 hrs [5]: 1.1
cytotoxicity, Normal Human Liver Cells, 40 hrs [5]: 0
cytotoxicity, Normal Human Liver Cells, 48 hrs [5]: 3.2
cytotoxicity, Normal Human Kidney Cells, 8 hrs [6]: 11.7
cytotoxicity, Normal Human Kidney Cells, 16 hrs [6]: 12.9
cytotoxicity, Normal Human Kidney Cells, 24 hrs [6]: 14.8
cytotoxicity, Normal Human Kidney Cells, 32 hrs [6]: 16.2
cytotoxicity, Normal Human Kidney Cells, 40 hrs [6]: 17.1
cytotoxicity, Normal Human Kidney Cells, 48 hrs [6]: 21.4
cytotoxicity, Normal Human Colon Cells, 8 hrs [7]: 12.1
cytotoxicity, Normal Human Colon Cells, 16 hrs [7]: 16.4
cytotoxicity, Normal Human Colon Cells, 24 hrs [7]: 13.6
cytotoxicity, Normal Human Colon Cells, 32 hrs [7]: 19
cytotoxicity, Normal Human Colon Cells, 40 hrs [7]: 20
cytotoxicity, Normal Human Colon Cells, 48 hrs [7]: 17.2
Fold Change [8]: 6190 fold
EC50 [9]: 619 µM

B2: Affy7-Y6M CAR (other)
chain: GSEQKLISEEDLGSQVQLQQSGPELVRPGASVKMSCRASGYTFTSYWLHWVKQRPGQGLEWIGMIDPSNSDTRFNPNFKDKATLNVDRSSNTAYMLLSSLTSADSAVYYCATMGSYVSPLDYWGQGTSVTVSSGGGGSGGGGSGGGGSDIMMSQSPSSLTVSVGEKVTVSCKSSQSLLYTSSQKNYLAWYQQKPGQSPKLLIYWASTRESGVPDRFTGSGSGTDFTLTITSVKADDLAVYYCQQYYAYPWTFGGGTKLEIKRASTTTPAPRPPTPAPTIASQPLSLRPEACRPAAGGAVHTRGLDFACDFWVLVVVGGVLACYSLLVTVAFIIFWVRSKRSRLLHSDYMNMTPRRPGPTRKHYQPYAPPRDFAAYRSLRVKFSRSADAPAYQQGQNQLYNELNLGRREEYDVLDKRRGRDPEMGGKPRRKNPQEGLYNELQKDKMAEAYSEIGMKGERRRGKGHDGLYQGLSTATKDTYDALHMQALPPR
notes: CAR on transduced human T cells; Y to M in HC CDR3; P2A remnant not included; also called MycT-Affy7-Y6M CAR-SSTR2
percent cytotoxicity, SNU638, 24 hrs [1]: 61.2%
percent cytotoxicity, SNU638, 48 hrs [1]: 77.5%
percent cytotoxicity, SNU638, 72 hrs [1]: 90.6%
percent cytotoxicity, Hs746T, 24 hrs [2]: 47.6%
percent cytotoxicity, Hs746T, 48 hrs [2]: 87%
percent cytotoxicity, Hs746T, 72 hrs [2]: 96.4%
percent cytotoxicity, H1993, 24 hrs [3]: 21.3%
percent cytotoxicity, H1993, 48 hrs [3]: 70.5%
percent cytotoxicity, H1993, 72 hrs [3]: 89.6%
cytotoxicity, Normal Human Lung Cells, 8 hrs [4]: 9.9
cytotoxicity, Normal Human Lung Cells, 16 hrs [4]: 9.7
cytotoxicity, Normal Human Lung Cells, 24 hrs [4]: 6.3
cytotoxicity, Normal Human Lung Cells, 32 hrs [4]: 6.9
cytotoxicity, Normal Human Lung Cells, 40 hrs [4]: 9.5
cytotoxicity, Normal Human Lung Cells, 48 hrs [4]: 13.8
cytotoxicity, Normal Human Liver Cells, 8 hrs [5]: 7.2
cytotoxicity, Normal Human Liver Cells, 16 hrs [5]: 6.2
cytotoxicity, Normal Human Liver Cells, 24 hrs [5]: 9
cytotoxicity, Normal Human Liver Cells, 32 hrs [5]: 10.9
cytotoxicity, Normal Human Liver Cells, 40 hrs [5]: 11.3
cytotoxicity, Normal Human Liver Cells, 48 hrs [5]: 10
cytotoxicity, Normal Human Kidney Cells, 8 hrs [6]: 8.8
cytotoxicity, Normal Human Kidney Cells, 16 hrs [6]: 10
cytotoxicity, Normal Human Kidney Cells, 24 hrs [6]: 12
cytotoxicity, Normal Human Kidney Cells, 32 hrs [6]: 13.3
cytotoxicity, Normal Human Kidney Cells, 40 hrs [6]: 15.9
cytotoxicity, Normal Human Kidney Cells, 48 hrs [6]: 19.7
cytotoxicity, Normal Human Colon Cells, 8 hrs [7]: 1.4
cytotoxicity, Normal Human Colon Cells, 16 hrs [7]: 1.7
cytotoxicity, Normal Human Colon Cells, 24 hrs [7]: 1.4
cytotoxicity, Normal Human Colon Cells, 32 hrs [7]: 7.1
cytotoxicity, Normal Human Colon Cells, 40 hrs [7]: 1.8
cytotoxicity, Normal Human Colon Cells, 48 hrs [7]: 3.6
Fold Change [8]: 172 fold
EC50 [9]: 17.2 µM

B3: Affy7-Y6V CAR (other)
chain: GSEQKLISEEDLGSQVQLQQSGPELVRPGASVKMSCRASGYTFTSYWLHWVKQRPGQGLEWIGMIDPSNSDTRFNPNFKDKATLNVDRSSNTAYMLLSSLTSADSAVYYCATVGSYVSPLDYWGQGTSVTVSSGGGGSGGGGSGGGGSDIMMSQSPSSLTVSVGEKVTVSCKSSQSLLYTSSQKNYLAWYQQKPGQSPKLLIYWASTRESGVPDRFTGSGSGTDFTLTITSVKADDLAVYYCQQYYAYPWTFGGGTKLEIKRASTTTPAPRPPTPAPTIASQPLSLRPEACRPAAGGAVHTRGLDFACDFWVLVVVGGVLACYSLLVTVAFIIFWVRSKRSRLLHSDYMNMTPRRPGPTRKHYQPYAPPRDFAAYRSLRVKFSRSADAPAYQQGQNQLYNELNLGRREEYDVLDKRRGRDPEMGGKPRRKNPQEGLYNELQKDKMAEAYSEIGMKGERRRGKGHDGLYQGLSTATKDTYDALHMQALPPR
notes: CAR on transduced human T cells; Y to V in HC CDR3; P2A remnant not included; also called MycT-Affy7-Y6V CAR-SSTR2
percent cytotoxicity, SNU638, 24 hrs [1]: 68.1%
percent cytotoxicity, SNU638, 48 hrs [1]: 81.9%
percent cytotoxicity, SNU638, 72 hrs [1]: 93.2%
percent cytotoxicity, Hs746T, 24 hrs [2]: 65%
percent cytotoxicity, Hs746T, 48 hrs [2]: 94.8%
percent cytotoxicity, Hs746T, 72 hrs [2]: 98.2%
percent cytotoxicity, H1993, 24 hrs [3]: 40%
percent cytotoxicity, H1993, 48 hrs [3]: 84.2%
percent cytotoxicity, H1993, 72 hrs [3]: 93.8%
cytotoxicity, Normal Human Lung Cells, 8 hrs [4]: 18.2
cytotoxicity, Normal Human Lung Cells, 16 hrs [4]: 18
cytotoxicity, Normal Human Lung Cells, 24 hrs [4]: 15.4
cytotoxicity, Normal Human Lung Cells, 32 hrs [4]: 17.9
cytotoxicity, Normal Human Lung Cells, 40 hrs [4]: 16.7
cytotoxicity, Normal Human Lung Cells, 48 hrs [4]: 21.5
cytotoxicity, Normal Human Liver Cells, 8 hrs [5]: 6.5
cytotoxicity, Normal Human Liver Cells, 16 hrs [5]: 3.9
cytotoxicity, Normal Human Liver Cells, 24 hrs [5]: 5.5
cytotoxicity, Normal Human Liver Cells, 32 hrs [5]: 8.7
cytotoxicity, Normal Human Liver Cells, 40 hrs [5]: 10.7
cytotoxicity, Normal Human Liver Cells, 48 hrs [5]: 10.8
cytotoxicity, Normal Human Kidney Cells, 8 hrs [6]: 9.3
cytotoxicity, Normal Human Kidney Cells, 16 hrs [6]: 9.7
cytotoxicity, Normal Human Kidney Cells, 24 hrs [6]: 10.6
cytotoxicity, Normal Human Kidney Cells, 32 hrs [6]: 10.3
cytotoxicity, Normal Human Kidney Cells, 40 hrs [6]: 11
cytotoxicity, Normal Human Kidney Cells, 48 hrs [6]: 14.8
cytotoxicity, Normal Human Colon Cells, 8 hrs [7]: 9.4
cytotoxicity, Normal Human Colon Cells, 16 hrs [7]: 13.5
cytotoxicity, Normal Human Colon Cells, 24 hrs [7]: 14
cytotoxicity, Normal Human Colon Cells, 32 hrs [7]: 18.2
cytotoxicity, Normal Human Colon Cells, 40 hrs [7]: 20.3
cytotoxicity, Normal Human Colon Cells, 48 hrs [7]: 22.2
Fold Change [8]: 53 fold
EC50 [9]: 5.3 µM
